Test results published in publication PMC4615246 (Nucleus, 2015).

T1: LacI-CFP-Nup153 (human, UniProt P49790 1-1475)
T1 sequence: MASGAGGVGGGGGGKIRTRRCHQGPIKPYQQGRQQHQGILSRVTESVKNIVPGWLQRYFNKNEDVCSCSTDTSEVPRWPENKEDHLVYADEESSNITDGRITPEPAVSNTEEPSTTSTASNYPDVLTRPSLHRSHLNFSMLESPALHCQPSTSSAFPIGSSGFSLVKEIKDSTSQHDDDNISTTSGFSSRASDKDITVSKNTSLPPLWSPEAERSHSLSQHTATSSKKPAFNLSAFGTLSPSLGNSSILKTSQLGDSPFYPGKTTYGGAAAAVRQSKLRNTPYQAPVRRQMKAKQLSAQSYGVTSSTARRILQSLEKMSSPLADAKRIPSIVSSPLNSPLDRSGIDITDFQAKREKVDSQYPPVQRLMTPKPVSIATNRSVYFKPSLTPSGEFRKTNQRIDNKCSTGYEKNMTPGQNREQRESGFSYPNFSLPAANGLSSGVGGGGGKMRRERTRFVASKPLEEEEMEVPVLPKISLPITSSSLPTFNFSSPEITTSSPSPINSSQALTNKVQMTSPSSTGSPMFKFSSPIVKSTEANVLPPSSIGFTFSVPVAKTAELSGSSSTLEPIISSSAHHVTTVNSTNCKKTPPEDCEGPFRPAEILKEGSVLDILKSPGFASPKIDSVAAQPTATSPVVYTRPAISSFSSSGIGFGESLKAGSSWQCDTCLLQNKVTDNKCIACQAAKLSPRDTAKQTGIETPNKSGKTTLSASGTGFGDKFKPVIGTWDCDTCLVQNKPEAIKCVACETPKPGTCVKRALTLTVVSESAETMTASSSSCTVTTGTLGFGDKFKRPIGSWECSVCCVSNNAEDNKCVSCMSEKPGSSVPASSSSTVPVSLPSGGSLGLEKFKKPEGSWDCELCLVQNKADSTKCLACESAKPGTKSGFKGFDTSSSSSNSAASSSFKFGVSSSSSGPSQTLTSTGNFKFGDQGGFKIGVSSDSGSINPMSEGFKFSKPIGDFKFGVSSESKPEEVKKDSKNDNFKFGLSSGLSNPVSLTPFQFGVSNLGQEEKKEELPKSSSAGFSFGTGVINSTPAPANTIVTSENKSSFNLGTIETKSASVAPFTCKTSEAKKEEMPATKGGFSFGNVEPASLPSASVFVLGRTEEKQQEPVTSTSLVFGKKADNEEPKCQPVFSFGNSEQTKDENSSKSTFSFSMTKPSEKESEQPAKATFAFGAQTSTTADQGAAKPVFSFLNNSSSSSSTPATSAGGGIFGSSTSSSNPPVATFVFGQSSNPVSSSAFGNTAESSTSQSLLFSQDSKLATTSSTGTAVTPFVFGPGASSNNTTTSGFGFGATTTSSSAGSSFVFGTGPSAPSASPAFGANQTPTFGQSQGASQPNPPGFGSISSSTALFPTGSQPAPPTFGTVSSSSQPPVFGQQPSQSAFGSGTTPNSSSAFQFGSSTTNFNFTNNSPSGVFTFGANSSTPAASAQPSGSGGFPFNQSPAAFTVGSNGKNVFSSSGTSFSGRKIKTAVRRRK

T2: LacI-CFP-Nup155 (human, UniProt O75694 1-1391)
T2 sequence: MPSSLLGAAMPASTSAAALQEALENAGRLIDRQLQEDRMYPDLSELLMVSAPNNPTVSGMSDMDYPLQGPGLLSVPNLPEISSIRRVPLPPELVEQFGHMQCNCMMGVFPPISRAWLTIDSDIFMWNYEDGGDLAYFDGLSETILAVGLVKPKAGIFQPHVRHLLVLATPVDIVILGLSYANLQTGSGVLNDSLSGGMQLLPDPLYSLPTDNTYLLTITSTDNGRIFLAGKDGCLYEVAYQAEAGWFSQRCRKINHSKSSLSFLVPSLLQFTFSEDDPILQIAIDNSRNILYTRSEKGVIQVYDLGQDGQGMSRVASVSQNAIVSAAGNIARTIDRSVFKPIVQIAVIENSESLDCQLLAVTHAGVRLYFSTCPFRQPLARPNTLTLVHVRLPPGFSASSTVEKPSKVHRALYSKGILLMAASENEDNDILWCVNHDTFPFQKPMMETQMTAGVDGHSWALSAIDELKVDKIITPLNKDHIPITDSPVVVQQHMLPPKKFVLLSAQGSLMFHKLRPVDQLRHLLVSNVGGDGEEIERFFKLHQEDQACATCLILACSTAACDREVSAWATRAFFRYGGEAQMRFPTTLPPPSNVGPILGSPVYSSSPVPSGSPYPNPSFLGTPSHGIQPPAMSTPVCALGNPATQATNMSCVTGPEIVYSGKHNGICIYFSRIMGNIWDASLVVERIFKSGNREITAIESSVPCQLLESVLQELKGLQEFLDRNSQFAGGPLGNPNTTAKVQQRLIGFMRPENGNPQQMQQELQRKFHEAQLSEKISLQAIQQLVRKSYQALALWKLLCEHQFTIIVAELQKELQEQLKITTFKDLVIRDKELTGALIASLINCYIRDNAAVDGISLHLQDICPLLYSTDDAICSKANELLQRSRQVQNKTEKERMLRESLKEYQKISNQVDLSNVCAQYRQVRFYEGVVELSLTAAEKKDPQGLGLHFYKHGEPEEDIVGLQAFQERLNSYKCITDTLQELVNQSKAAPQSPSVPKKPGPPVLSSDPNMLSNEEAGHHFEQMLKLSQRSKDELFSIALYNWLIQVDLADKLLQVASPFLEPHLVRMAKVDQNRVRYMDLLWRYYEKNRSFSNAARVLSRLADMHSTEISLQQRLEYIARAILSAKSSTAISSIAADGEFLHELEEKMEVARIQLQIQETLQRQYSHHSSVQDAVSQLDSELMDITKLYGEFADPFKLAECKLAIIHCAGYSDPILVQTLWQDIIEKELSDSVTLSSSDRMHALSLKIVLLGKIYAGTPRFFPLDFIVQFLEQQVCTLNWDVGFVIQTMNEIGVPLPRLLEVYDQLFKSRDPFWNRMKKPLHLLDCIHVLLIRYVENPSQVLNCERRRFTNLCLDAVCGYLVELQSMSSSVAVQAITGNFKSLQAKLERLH


Legend:
[1] = molecular target: T1, LacI-CFP-Nup153; assay: LacI/LacO array recruitment in cells
[2] = molecular target: T2, LacI-CFP-Nup155; assay: LacI/LacO array recruitment in cells

Binder	percent of transfected cells showing colocalization [1] [%]	percent of transfected cells showing colocalization [2] [%]
Nup160 (endogenous) (natural protein) MLHLSAAPPAPPPEVTATARPCLCSVGRRGDGGKMAAAGALERSFVELSGAERERPRHFREFTVCSIGTANAVAGAVKYSESAGGFYYVESGKLFSVTRNRFIHWKTSGDTLELMEESLDINLLNNAIRLKFQNCSVLPGGVYVSETQNRVIILMLTNQTVHRLLLPHPSRMYRSELVVDSQMQSIFTDIGKVDFTDPCNYQLIPAVPGISPNSTASTAWLSSDGEALFALPCASGGIFVLKLPPYDIPGMVSVVELKQSSVMQRLLTGWMPTAIRGDQSPSDRPLSLAVHCVEHDAFIFALCQDHKLRMWSYKEQMCLMVADMLEYVPVKKDLRLTAGTGHKLRLAYSPTMGLYLGIYMHAPKRGQFCIFQLVSTESNRYSLDHISSLFTSQETLIDFALTSTDIWALWHDAENQTVVKYINFEHNVAGQWNPVFMQPLPEEEIVIRDDQDPREMYLQSLFTPGQFTNEALCKALQIFCRGTERNLDLSWSELKKEVTLAVENELQGSVTEYEFSQEEFRNLQQEFWCKFYACCLQYQEALSHPLALHLNPHTNMVCLLKKGYLSFLIPSSLVDHLYLLPYENLLTEDETTISDDVDIARDVICLIKCLRLIEESVTVDMSVIMEMSCYNLQSPEKAAEQILEDMITIDVENVMEDICSKLQEIRNPIHAIGLLIREMDYETEVEMEKGFNPAQPLNIRMNLTQLYGSNTAGYIVCRGVHKIASTRFLICRDLLILQQLLMRLGDAVIWGTGQLFQAQQDLLHRTAPLLLSYYLIKWGSECLATDVPLDTLESNLQHLSVLELTDSGALMANRFVSSPQTIVELFFQEVARKHIISHLFSQPKAPLSQTGLNWPEMITAITSYLLQLLWPSNPGCLFLECLMGNCQYVQLQDYIQLLHPWCQVNVGSCRFMLGRCYLVTGEGQKALECFCQAASEVGKEEFLDRLIRSEDGEIVSTPRLQYYDKVLRLLDVIGLPELVIQLATSAITEAGDDWKSQATLRTCIFKHHLDLGHNSQAYEALTQIPDSSRQLDCLRQLVVVLCERSQLQDLVEFPYVNLHNEVVGIIESRARAVDLMTHNYYELLYAFHIYRHNYRKAGTVMFEYGMRLGREVRTLRGLEKQGNCYLAALNCLRLIRPEYAWIVQPVSGAVYDRPGASPKRNHDGECTAAPTNRQIEILELEDLEKECSLARIRLTLAQHDPSAVAVAGSSSAEEMVTLLVQAGLFDTAISLCQTFKLPLTPVFEGLAFKCIKLQFGGEAAQAEAWAWLAANQLSSVITTKESSATDEAWRLLSTYLERYKVQNNLYHHCVINKLLSHGVPLPNWLINSYKKVDAAELLRLYLNYDLLEEAVDLVSEYVDAVLGKGHQYFGIEFPLSATAPMVWLPYSSIDQLLQALGENSANSHNIALSQKILDKLEDYQQKVDKATRDLLYRRTL	33	
Nup62 (endogenous) (natural protein) MSGFNFGGTGAPTGGFTFGTAKTATTTPATGFSFSTSGTGGFNFGAPFQPATSTPSTGLFSLATQTPATQTTGFTFGTATLASGGTGFSLGIGASKLNLSNTAATPAMANPSGFGLGSSNLTNAISSTVTSSQGTAPTGFVFGPSTTSVAPATTSGGFSFTGGSTAQPSGFNIGSAGNSAQPTAPATLPFTPATPAATTAGATQPAAPTPTATITSTGPSLFASIATAPTSSATTGLSLCTPVTTAGAPTAGTQGFSLKAPGAASGTSTTTSTAATATATTTSSSSTTGFALNLKPLAPAGIPSNTAAAVTAPPGPGAAAGAAASSAMTYAQLESLINKWSLELEDQERHFLQQATQVNAWDRTLIENGEKITSLHREVEKVKLDQKRLDQELDFILSQQKELEDLLSPLEELVKEQSGTIYLQHADEEREKTYKLAENIDAQLKRMAQDLKDIIEHLNTSGAPADTSDPLQQICKILNAHMDSLQWIDQNSALLQRKVEEVTKVCEGRRKEQERSFRITFD	56	
Nup85 (endogenous) (natural protein) MEELDGEPTVTLIPGVNSKKNQMYFDWGPGEMLVCETSFNKKEKSEMVPSCPFIYIIRKDVDVYSQILRKLFNESHGIFLGLQRIDEELTGKSRKSQLVRVSKNYRSVIRACMEEMHQVAIAAKDPANGRQFSSQVSILSAMELIWNLCEILFIEVAPAGPLLLHLLDWVRLHVCEVDSLSADVLGSENPSKHDSFWNLVTILVLQGRLDEARQMLSKEADASPASAGICRIMGDLMRTMPILSPGNTQTLTELELKWQHWHEECERYLQDSTFATSPHLESLLKIMLGDEAALLEQKELLSNWYHFLVTRLLYSNPTVKPIDLHYYAQSSLDLFLGGESSPEPLDNILLAAFEFDIHQVIKECSIALSNWWFVAHLTDLLDHCKLLQSHNLYFGSNMREFLLLEYASGLFAHPSLWQLGVDYFDYCPELGRVSLELHIERIPLNTEQKALKVLRICEQRQMTEQVRSICKILAMKAVRNNRLGSALSWSIRAKDAAFATLVSDRFLRDYCERGCFSDLDLIDNLGPAMMLSDRLTFLGKYREFHRMYGEKRFADAASLLLSLMTSRIAPRSFWMTLLTDALPLLEQKQVIFSAEQTYELMRCLEDLTSRRPVHGESDTEQLQDDDIETTKVEMLRLSLARNLARAIIREGSLEGS	58	
Nup93 (endogenous) (natural protein) MDTEGFGELLQQAEQLAAETEGISELPHVERNLQEIQQAGERLRSRTLTRTSQETADVKASVLLGSRGLDISHISQRLESLSAATTFEPLEPVKDTDIQGFLKNEKDNALLSAIEESRKRTFGMAEEYHRESMLVEWEQVKQRILHTLLASGEDALDFTQESEPSYISDVGPPGRSSLDNIEMAYARQIYIYNEKIVNGHLQPNLVDLCASVAELDDKSISDMWTMVKQMTDVLLTPATDALKNRSSVEVRMEFVRQALAYLEQSYKNYTLVTVFGNLHQAQLGGVPGTYQLVRSFLNIKLPAPLPGLQDGEVEGHPVWALIYYCMRCGDLLAASQVVNRAQHQLGEFKTWFQEYMNSKDRRLSPATENKLRLHYRRALRNNTDPYKRAVYCIIGRCDVTDNQSEVADKTEDYLWLKLNQVCFDDDGTSSPQDRLTLSQFQKQLLEDYGESHFTVNQQPFLYFQVLFLTAQFEAAVAFLFRMERLRCHAVHVALVLFELKLLLKSSGQSAQLLSHEPGDPPCLRRLNFVRLLMLYTRKFESTDPREALQYFYFLRDEKDSQGENMFLRCVSELVIESREFDMILGKLENDGSRKPGVIDKFTSDTKPIINKVASVAENKGLFEEAAKLYDLAKNADKVLELMNKLLSPVVPQISAPQSNKERLKNMALSIAERYRAQGISANKFVDSTFYLLLDLITFFDEYHSGHIDRAFDIIERLKLVPLNQESVEERVAAFRNFSDEIRHNLSEVLLATMNILFTQFKRLKGTSPSSSSRPQRVIEDRDSQLRSQARTLITFAGMIPYRTSGDTNARLVQMEVLMN	23	2
